{
  "source": "patent US20220396819A1",
  "about": "“METHOD FOR PRODUCING PEPTIDE HAVING PHYSIOLOGICAL ACTIVITY, AND PEPTIDE COMPRISING SHORT LINKER” (priority 2019, published 2022)",
  "key": {"[1]": {"system": "HEL cells", "experiment": "Thrombopoietin-like activity, CREB phosphorylation levels in HEL cells (Phospho-CREB (Ser133) ELISA)", "format": "cell-based, human", "conditions": "dimer peptide 20-40 ng/mL or rhTPO 100 ng/mL, 20 minutes, Mock = PBS, FIG. 90", "procedure": "The thrombopoietin-like activity of the TPO-PAS dimer peptide variant was evaluated by quantification of CREB phosphorylation levels in HEL cells, a human leukemia-derived blood cell line. 200,000 HEL cells were cultured in RPMI 1640 medium without FBS (Thermo Fisher Scientific) for 24 hours and starved. The cells were stimulated for 20 minutes in RPMI 1640 medium supplemented with 100 ng/mL recombinant human TPO (rhTPO, Peprotech) or a culture supernatant containing each dimer peptide of TPO2-PAS8, TPO2-PAS49, TPO2-PAS100, or TPO2-GS8 diluted to a final concentration of 20-40 ng/mL. As a negative control, PBS was added, and stimulation was performed for 20 minutes (Mock group). After removing the medium and washing the cells once with PBS, the cells were lysed by adding 100 μL of Lysis buffer 17 (R&D Systems) supplemented with Protease inhibitor cocktail (Nacalai Tesque). The lysate solution was centrifuged at 14,000 G for 5 minutes to obtain the supernatant as lysate. Note that TPO2-PAS8 was obtained according to the method described in Example 23.\nPhospho-CREB (Ser133) and Total CREB ELISA kit (RayBio) were used to quantify phosphorylated CREB (pCREB) levels in the lysates. […] Phosphorylation levels were quantified by adding 50 μL of Stop solution and measuring the absorbance at a wavelength of 450 nm on a microplate."}, "[2]": {"system": "HEL cells", "experiment": "Signal characteristics, Proteome Profiler Human Phospho-Kinase Array Kit, HEL cells", "format": "cell-based", "conditions": "100 ng/mL rhTPO or culture supernatant 1/100 to 1/1000, 20 minutes, FIG. 43", "procedure": "The signal characteristics of the TPO-PAS dimer peptide were evaluated using Proteome Profiler Human Phospho-Kinase Array Kit (R&D Systems).\n1,000,000 HEL cells were cultured in RPMI 1640 medium without FBS (Thermo Fisher Scientific) for 24 hours and starved. The cells were stimulated for 20 minutes in RPMI 1640 medium supplemented with 100 ng/mL recombinant human TPO (rhTPO, Peprotech) or a culture supernatant containing TPO2-PAS8 at a dilution of 1/100 to 1/1000. As a negative control, PBS was added, and stimulation was performed for 20 minutes (Mock group). After removing the medium and washing the cells once with PBS, the cells were lysed by adding 200 μL of Lysis buffer 17 (R&D Systems) supplemented with Protease inhibitor cocktail (Nacalai Tesque). The lysate solution was centrifuged at 14,000 G for 5 minutes to obtain the supernatant as lysate.\nThe lysate was analyzed using Proteome Profiler Human Phospho-Kinase Array Kit. Amersham Imager 600 (GE Healthcare) was used to detect chemiluminescence. The chemiluminescence intensity of the dots was quantified using ImageJ. […] The signal pathway stimulated by rhTPO is mainly the JAK2/Stat3,5 pathway, and all of the proteins with increased phosphorylation levels are included in the pathway."}},
  "data": [
    {"molecule": "rhTPO: recombinant human TPO (rhTPO, Peprotech) (protein) SPAPPACDLRVLSKLLRDSHVLHSRLSQCPEVHPLPTPVLLPAVDFSLGEWKTQMEETKAQDILGAVTLLLEGVMAARGQLGPTCLSSLLGQLSGQVRLLLGALQSLLGTQLPPQGRTTAHKDPNAIFLSFQHLLRGKVRFLMLVGGSTLCVRRAPPTTAVPSRTSLVLTLNEL", "values": [
      {"measurement": "pCREB level (relative CREB phosphorylation level)", "setting": "[1]", "result": 143, "unit": "%"},
      {"measurement": "phosphorylation levels of signal proteins compared with PBS (Mock group)", "setting": "[2]", "result": "increased in phosphorylation levels of Erk, CREB, Stat3, Stat5a, and Stat5b"}
    ]}
  ]
}
